Molecular target: Src-YN (mouse)
Assay: split reporter (BiFC, NanoBiT); BiFC with YFP fragments YC (155-238) and YN (1-154) in co-transfected CHO-K1 cells on fibronectin-coated coverslips; whole cells, fixed (also live cells and TIRFM), wide-field fluorescence; cells scored as background, ER + punctate or only punctate

% of cells with BiFC signal (ER + punctate): 86%
% of cells with BiFC signal (only punctate): 14%
Substance: YC-PTP1BWT (from UniProt P18031 1-435) (enzyme)

Source: PMC3372476
